In the assay the target is Mouse FGFR4/β-klotho complex co-expressed in L6 cells (mouse, UniProt Q03142 17-799; Q99N32 1-1043). Put plainly: cell-based or functional assay.
Mouse FGFR4/β-klotho complex co-expressed in L6 cells, sequence (Q03142 17-799, chain 1 of 2): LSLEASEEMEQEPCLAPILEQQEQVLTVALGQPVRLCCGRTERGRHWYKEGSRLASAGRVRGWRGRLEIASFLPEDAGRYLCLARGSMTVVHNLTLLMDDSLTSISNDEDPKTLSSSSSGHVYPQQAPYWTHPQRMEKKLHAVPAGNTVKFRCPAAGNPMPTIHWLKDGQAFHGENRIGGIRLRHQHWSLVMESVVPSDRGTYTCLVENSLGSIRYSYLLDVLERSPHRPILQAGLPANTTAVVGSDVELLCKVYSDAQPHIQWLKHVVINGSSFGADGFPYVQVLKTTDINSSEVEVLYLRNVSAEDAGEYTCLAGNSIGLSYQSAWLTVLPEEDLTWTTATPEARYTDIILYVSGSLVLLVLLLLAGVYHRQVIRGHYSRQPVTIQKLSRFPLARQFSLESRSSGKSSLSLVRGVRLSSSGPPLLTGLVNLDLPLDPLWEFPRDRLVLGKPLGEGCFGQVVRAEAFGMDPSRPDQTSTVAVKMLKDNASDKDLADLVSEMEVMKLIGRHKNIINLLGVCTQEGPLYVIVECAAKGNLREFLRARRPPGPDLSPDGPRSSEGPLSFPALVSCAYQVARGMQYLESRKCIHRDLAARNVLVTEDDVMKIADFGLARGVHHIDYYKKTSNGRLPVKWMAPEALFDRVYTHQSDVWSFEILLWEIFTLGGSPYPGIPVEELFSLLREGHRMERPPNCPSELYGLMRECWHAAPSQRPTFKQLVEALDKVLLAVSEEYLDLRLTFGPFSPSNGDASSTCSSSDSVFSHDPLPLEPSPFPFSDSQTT
Mouse FGFR4/β-klotho complex co-expressed in L6 cells, sequence (Q99N32 whole entry, chain 2 of 2): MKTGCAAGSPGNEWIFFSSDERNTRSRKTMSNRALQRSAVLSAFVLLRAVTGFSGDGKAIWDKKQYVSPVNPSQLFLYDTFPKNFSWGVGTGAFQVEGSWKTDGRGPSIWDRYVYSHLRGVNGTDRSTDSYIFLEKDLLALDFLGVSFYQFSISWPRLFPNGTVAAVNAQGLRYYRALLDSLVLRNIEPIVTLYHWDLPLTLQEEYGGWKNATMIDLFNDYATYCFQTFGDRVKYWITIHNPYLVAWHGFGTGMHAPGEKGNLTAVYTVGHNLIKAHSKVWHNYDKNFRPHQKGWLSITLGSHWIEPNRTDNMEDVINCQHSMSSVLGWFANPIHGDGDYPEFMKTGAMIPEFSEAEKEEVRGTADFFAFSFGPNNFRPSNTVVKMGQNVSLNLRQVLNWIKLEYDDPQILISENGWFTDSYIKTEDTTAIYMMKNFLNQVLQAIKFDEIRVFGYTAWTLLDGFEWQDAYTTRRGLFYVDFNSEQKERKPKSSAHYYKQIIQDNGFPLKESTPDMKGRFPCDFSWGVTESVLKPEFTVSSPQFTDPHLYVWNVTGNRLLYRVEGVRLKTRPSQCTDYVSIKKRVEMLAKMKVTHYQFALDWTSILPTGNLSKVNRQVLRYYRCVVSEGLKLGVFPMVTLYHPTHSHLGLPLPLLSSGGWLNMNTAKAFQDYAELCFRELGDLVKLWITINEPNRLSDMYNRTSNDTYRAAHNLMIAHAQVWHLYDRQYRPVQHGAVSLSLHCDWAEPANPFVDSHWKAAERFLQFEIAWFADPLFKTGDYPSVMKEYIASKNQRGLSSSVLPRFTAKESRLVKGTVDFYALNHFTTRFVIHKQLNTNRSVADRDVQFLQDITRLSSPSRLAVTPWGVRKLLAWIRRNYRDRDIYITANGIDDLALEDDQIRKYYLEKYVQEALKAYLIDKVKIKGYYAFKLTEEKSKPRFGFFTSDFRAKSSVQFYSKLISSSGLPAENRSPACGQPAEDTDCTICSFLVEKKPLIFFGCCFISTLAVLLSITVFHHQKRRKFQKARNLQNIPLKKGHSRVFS

B1: M70 (FGF19 variant) (ligand)
chain: MRDSSPLVHYGWGDPIRLRHLYTSGPHGLSSCFLRIRADGVVDCARGQSAHSLLEIKAVALRTVAIKGVHSVRYLCMGADGKMQGLLQYSEEDCAFEEEIRPDGYNVYRSEKHRLPVSLSSAKQRQLYKNRGFLPLSHFLPMLPMVPEEPEDLRGHLESDMFSSPLETDSMDPFGLVTGLEAVRSPSFEK
For the molecule B1, the “EC50 (pM), ELK1 luciferase reporter in L6 cells” value was 38.3 pM and the “Emax (fold potentiation), ELK1 luciferase reporter in L6 cells” value was found to be 1.85 fold potentiation.
